20 molecules from patent publication US20180258181A1 (Bayer, published 2018) can be followed below.

Residue numbers refer to the chain shown, from its start.

Assay [1] addresses T1, human mesothelin (recombinant, soluble, purified; 40 kDa C-terminal polypeptide of the mesothelin precursor) (human, UniProt Q13421 296-598, limits assumed).
T1 construct: also called soluble mesothelin
In words: SPR (Biacore 3000), Fab on covalently immobilized human mesothelin.

Assay [2] concerns the target T1, human mesothelin (recombinant, soluble, …). In words: SPR (Biacore), Fab on directly immobilized mesothelin.
For assay [3], the target named is T2, murine mesothelin (recombinant) (murine, UniProt Q61468 298-600, limits assumed).
T2 construct: Covalently immobilized on the Biacore chip
T2 sequence (looked up): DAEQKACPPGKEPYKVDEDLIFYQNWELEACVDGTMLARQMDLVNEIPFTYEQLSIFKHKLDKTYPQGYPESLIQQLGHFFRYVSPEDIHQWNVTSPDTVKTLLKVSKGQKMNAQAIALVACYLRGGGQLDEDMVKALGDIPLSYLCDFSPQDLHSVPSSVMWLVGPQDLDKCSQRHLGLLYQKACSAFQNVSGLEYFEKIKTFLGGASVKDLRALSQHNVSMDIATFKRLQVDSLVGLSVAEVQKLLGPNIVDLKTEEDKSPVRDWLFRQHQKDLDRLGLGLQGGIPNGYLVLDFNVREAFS
The experiment in a line: SPR (Biacore 3000), Fab on covalently immobilized murine mesothelin. How it is done: Shown in Table 5 are results of Biacore and ELISA studies showing cross-reactivity of antibodies of the invention to murine mesothelin. The kinetic constants kₒₙ and koff were determined with serial dilutions of the respective purified Fab fragment binding to covalently immobilized human or murine mesothelin using the Biacore 3000 instrument (Biacore, Uppsala, Sweden). Covalent antigen immobilization was achieved by a standard EDC-NHS coupling procedure. Kinetic measurements were done in PBS, pH 7.2 at a flow rate of […] using Fab concentration ranging from 1.5-500 nM. Injection time for each concentration was 1 min, followed by 3 min dissociation phase. For regeneration 5 μl 10 mM glycine buffer, pH 1.8 was used. All sensograms were fitted using the BIA evaluation software 3.1 (Biacore).

Assay [4] concerns the target T3, mesothelin on NCI-H226 cells (UniProt Q13421 296-598).
T3 construct: whole, on cells; In the immunoblots the protein stood in a denatured cell extract
The experiment in a line: FACS titration, IgG on NCI-H226 cells. How it is done:
FACS titration was performed in a 96 well microtiter plate, in which serial dilutions of the primary antibody in a volume of 80 μl of FACS buffer (3% FCS, 0.02% NaN₃ in PBS) were mixed with 20 μl of a cell suspension consisting of 10⁶ cells/ml which had been detached with accutase or trypsin/EDTA, and resuspended in FACS buffer. Incubation was performed at 4° C. for 1 hour with agitation. Cells were washed twice with FACS buffer and resuspended in 100 μl/well of anti-human PE conjugate solution in FACS buffer. Incubation and washing was performed as before. Analysis of cell-bound antibodies was done using the FACS Array device. EC₅₀ values were determined from fluorescence medians of duplicates using Prism 4.0 software (GraphPad) applying non-linear regression fit.

In assay [5] the target is T4, mesothelin on CHO-A9 cells (CHO-K1 stably transfected with the GPI-anchored C-terminal part of mesothelin) (Homo sapiens (Human), UniProt Q13421 287-598, GPI anchor).
T4 construct: In the immunoblots the protein stood in a denatured cell extract; also called mesothelin-expressing CHO-A9 cells
The experiment in a line: FACS with Scatchard analysis, IgG1 on CHO-A9 cells.

In assay [6] the target is T4, mesothelin on CHO-A9 cells (CHO-K1 …). In words: live cell ELISA, IgG1 on CHO-A9 cells.

T1 sequence (Q13421 other isoform, or with tags, fused parts or gaps limits assumed): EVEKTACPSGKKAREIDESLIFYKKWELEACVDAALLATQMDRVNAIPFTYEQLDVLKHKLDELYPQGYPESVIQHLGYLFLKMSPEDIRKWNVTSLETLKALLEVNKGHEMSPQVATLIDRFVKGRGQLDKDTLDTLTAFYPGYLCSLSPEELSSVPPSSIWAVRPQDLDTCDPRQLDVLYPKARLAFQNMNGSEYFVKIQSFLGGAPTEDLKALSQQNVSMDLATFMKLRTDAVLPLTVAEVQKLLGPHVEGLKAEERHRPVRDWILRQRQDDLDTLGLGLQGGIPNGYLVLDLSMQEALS
T4 sequence (Q13421 other isoform, or with tags, fused parts or gaps limits assumed): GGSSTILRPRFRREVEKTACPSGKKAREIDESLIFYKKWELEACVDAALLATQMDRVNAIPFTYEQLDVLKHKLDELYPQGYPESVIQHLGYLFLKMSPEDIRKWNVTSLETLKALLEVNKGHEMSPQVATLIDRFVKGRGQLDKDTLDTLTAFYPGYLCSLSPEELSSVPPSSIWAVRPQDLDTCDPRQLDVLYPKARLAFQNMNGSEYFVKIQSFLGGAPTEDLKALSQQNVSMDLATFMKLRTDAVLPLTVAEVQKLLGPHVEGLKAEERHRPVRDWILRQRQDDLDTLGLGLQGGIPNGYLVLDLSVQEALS

B1: MF-226 Fab (Fab, V domains shown)
VH: QVELVQSGAEVKKPGASVKVSCKASGYTFTGNYINWVRQAPGQGLEWMGIINPHGGDTKYAQKFQGRVTMTRDTSISTAYMELSSLRSEDTAVYYCARWHHGTWIFDYWGQGTLVTVSS
VL: DIVLTQPPSVSGAPGQRVTISCSGSSSNIGSNYVSWYQQLPGTAPKLLIYNDNQRPSGVPDRFSGSKSGTSASLAITGLQSEDEADYYCSTYDRRTFSVFGGGTKLTVLG
notes: Purified Fab
Consider B1, for which the values for the Kd in assay [1], in assay [2] and in assay [3] were 58 nM, 58 nM and 1280 nM, respectively. The koff was found to be 0.038 s⁻¹ in assay [1], 0.038 s⁻¹ in assay [2] and 0.14 s⁻¹ in assay [3].

B2: MOR06626 IgG (antibody, V domains shown)
VH: B1 VH with E3Q, H54T, G55K, D57W, K59L
VL: B1 VL
Consider B2, for which the half-maximal effective concentration (EC50) in assay [4] worked out at 0.44 nM.

B3: MOR06638 Fab (Fab, V domains shown)
VH: B1 VH with E3Q
VL: DIVLTQPPSVSGAPGQRVTISCSGSSSNIGSNYVSWYQQLPGTAPKLLIYNDNQRPSGVPDRFSGSKSGTSASLAITGLQSEDEADYYCSSWDRADGSYVFGGGTKLTVLG
notes: Purified Fab
Turning to B3, the Kd in assay [1] worked out at 16 nM; in assay [2], 16 nM; in assay [3], 320 nM. The koff in assay [1] was found to be 0.0063 s⁻¹; in assay [2], 0.0063 s⁻¹; in assay [3] it was 0.04 s⁻¹.

B4: MOR06638 IgG (antibody, V domains shown)
VH: B1 VH with E3Q
VL: B3 VL
In the case of B4, the EC50 in assay [4] was 0.19 nM.

B5: MOR06626 Fab (Fab, V domains shown)
VH: B1 VH with E3Q, H54T, G55K, D57W, K59L
VL: B1 VL
notes: Purified Fab
B5: the Kd in assay [1] amounted to 0.67 nM; in assay [2], 0.67 nM; in assay [3], 6.7 nM. The koff was found to be 0.0012 s⁻¹ in assay [1], 0.0012 s⁻¹ in assay [2] and 0.0098 s⁻¹ in assay [3].

B6: MF-J Fab (Fab, V domains shown)
VH: QVELVQSGAEVKKPGESLKISCKGSGYSFTNYWIGWVRQMPGKGLEWMGVIMPSDSYTRYSPSFQGQVTISADKSISTAYLQWSSLKASDTAMYYCARYGHGMYGGALDVWGQGTLVTVSS
VL: DIVLTQSPATLSLSPGERATLSCRASQSVRSSRLAWYQQKPGQAPRLLIYGASKRATGVPARFSGSGSGTDFTLTISSLEPEDFATYYCQQYYDFPPTFGQGTKVEIKR
notes: Purified Fab
As for B6, in assay [2], the Kd amounted to 9.2 nM and the koff worked out at 0.0029 s⁻¹.

B7: MOR06640 IgG (antibody, V domains shown)
VH: B6 VH with E3Q
VL: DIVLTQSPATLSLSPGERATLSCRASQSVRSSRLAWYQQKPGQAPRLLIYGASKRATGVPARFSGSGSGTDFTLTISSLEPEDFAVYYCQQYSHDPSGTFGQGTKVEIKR
For the molecule B7, the response in assay [4] was half-maximal at 0.63 nM (EC50).

B8: MOR06669 IgG (antibody, V domains shown)
VH: B6 VH with E3Q, V50I, M52W, S54I, Y57F, R59Q
VL: B6 VL
Molecule B8 came in with an EC50 in assay [4] of 0.41 nM.

B9: MOR06631 IgG (antibody, V domains shown)
VH: B6 VH with E3Q, V50F, M52W, S54V, Y57W, R59Q
VL: B6 VL
The molecule B9 had an EC50 in assay [4] of 2.02 nM.

B10: MOR06631 Fab (Fab, V domains shown)
VH: B6 VH with E3Q, V50F, M52W, S54V, Y57W, R59Q
VL: B6 VL
notes: Purified Fab
As for B10, in assay [2], the Kd turned out to be 0.09 nM and the koff was found to be 1.4e-05 s⁻¹.

B11: MOR07265 IgG (antibody, V domains shown)
VH: B6 VH with E3Q, V50F, M52W, S54V, Y57W, R59Q
VL: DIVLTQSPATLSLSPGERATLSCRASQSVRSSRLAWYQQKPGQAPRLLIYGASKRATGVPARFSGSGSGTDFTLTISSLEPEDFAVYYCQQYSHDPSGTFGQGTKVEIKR
For B11, a half-maximal effect in assay [4] (EC50) was put at 1.11 nM.

B12: MOR07111 IgG (antibody, V domains shown)
VH: B6 VH with E3Q
VL: B6 VL with T86V, Y92F, D94S, F95K, P97I
With B12, the response in assay [4] was half-maximal at 0.8 nM (EC50).

B13: MOR06642 IgG (antibody, V domains shown)
VH: B6 VH with E3Q
VL: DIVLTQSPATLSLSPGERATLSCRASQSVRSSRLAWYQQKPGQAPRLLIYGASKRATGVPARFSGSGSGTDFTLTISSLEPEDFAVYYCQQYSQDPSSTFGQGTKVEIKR
Regarding B13, the EC50 in assay [4] came out at 0.58 nM.

B14: MOR06669 Fab (Fab, V domains shown)
VH: B6 VH with E3Q, V50I, M52W, S54I, Y57F, R59Q
VL: B6 VL
notes: Purified Fab
As to B14, in assay [2], the Kd worked out at 0.24 nM and the koff came out at 8.1e-05 s⁻¹.

B15: MOR06643 Fab (Fab, V domains shown)
VH: QVQLVESGGGLVQPGGSLRLSCAASGFTFSDYAMSWVRQAPGKGLEWVSAIMYDSSSTFYADSVKGRFTISRDNSKNTLYLQMNSLRAEDTAVYYCARINYIYKGVHFDYWGQGTLVTVSS
VL: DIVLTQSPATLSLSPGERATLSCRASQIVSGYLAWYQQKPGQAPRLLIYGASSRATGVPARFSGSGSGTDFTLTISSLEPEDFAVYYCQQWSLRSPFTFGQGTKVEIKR
notes: Purified Fab
As for B15, in assay [2], the Kd came to 0.36 nM and the koff is 0.00028 s⁻¹.

B16: MOR06643 IgG (antibody, V domains shown)
VH: B15 VH
VL: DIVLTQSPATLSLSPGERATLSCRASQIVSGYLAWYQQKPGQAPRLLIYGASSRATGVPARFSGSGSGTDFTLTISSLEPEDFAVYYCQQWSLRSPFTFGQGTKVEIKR
Consider B16, for which the EC50 in assay [4] turned out to be 0.23 nM.

B17: MF-A Fab (Fab, V domains shown)
VH: QVQLVQSGAEVKKPGSSVKVSCKASGGTFSSYYFSWVRQAPGQGLEWMGGIIPKFGSANYAQKFQGRVTITADESTSTAYMELSSLRSEDTAVYYCARRTSMDYWGQGTLVTVSS
VL: DIALTQPASVSGSPGQSITISCTGTSSDVGGYNYVSWYQQHPGKAPKLMIYSVSKRPSGVSNRFSGSKSGNTASLTISGLQAEDEADYYCGAWAHMSLGKVFGGGTKLTVLG
notes: Purified Fab
Turning to B17, the Kd in assay [1] amounted to 19 nM; in assay [2], 19 nM; in assay [3], 670 nM. Also, the off-rate (koff) was 0.079 s⁻¹ in assay [1], 0.079 s⁻¹ in assay [2] and 0.27 s⁻¹ in assay [3].

B18: MOR06657 IgG (antibody, V domains shown)
VH: B17 VH
VL: B17 VL with G91A, A92T, A94D, M96S, S97Q, L98M
Regarding B18, in assay [4], it took 0.14 nM to reach a half-maximal effect (EC50). That is a sub-nanomolar value.

B19: MF-A IgG (antibody, V domains shown)
VH: B17 VH
VL: B17 VL
For the molecule B19, the EC50 in assay [5] was 0.05 nM; in assay [6], 0.8 nM.

B20: MOR06657 Fab (Fab, V domains shown)
VH: B17 VH
VL: B17 VL with G91A, A92T, A94D, M96S, S97Q, L98M
notes: Purified Fab
Regarding B20, the results for the equilibrium dissociation constant (Kd) in assay [1], in assay [2] and in assay [3] were 0.95 nM, 0.95 nM and 360 nM, respectively. The koff in assay [1] was 0.0055 s⁻¹; in assay [2], 0.0055 s⁻¹; in assay [3] it was 0.16 s⁻¹.
